Blank lines part the entries; values can stand above or below the molecule they belong to. Where a SMILES comes first, the peptide text is derived from it. Where no end group is shown, it is not given here.
What was measured:
[1] = Stability of peptides in sera; assay type: in vitro ADME; conditions: compared among cyclic FBP-8, linear FBP-8 and FBP-7
obese person = conditions: in vivo; cited from earlier work
Fas = target: T1, Fas (Homo sapiens, UniProt P25445); test: Binding of Alexa647-labeled peptides to Fas-expressing Jurkat cell line; conditions: Jurkat cell line always expressing Fas; Alexa647-labeled peptide
T1 construct: A Jurkat cell line, in which Fas is always expressed; host or cells: Jurkat
T1 sequence (P25445 26-335): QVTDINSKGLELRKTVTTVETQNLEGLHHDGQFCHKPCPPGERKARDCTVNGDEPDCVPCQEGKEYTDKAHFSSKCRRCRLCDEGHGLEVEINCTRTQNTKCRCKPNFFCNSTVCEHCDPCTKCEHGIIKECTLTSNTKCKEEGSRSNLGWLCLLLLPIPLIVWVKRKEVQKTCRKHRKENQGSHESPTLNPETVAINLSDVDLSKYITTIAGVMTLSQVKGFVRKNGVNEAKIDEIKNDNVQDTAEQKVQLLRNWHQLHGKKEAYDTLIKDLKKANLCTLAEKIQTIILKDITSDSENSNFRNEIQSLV
Description: A Jurkat cell line which is a human blood cancer cell line and a 3T3L1 cell line which is a murine adipocyte were purchased from ATCC (USA), and the Jurkat cell line was cultured in an RPMI culture medium containing 10% fetal bovine serum (FBS), 1% penicillin, 1% streptomycin, and 25 mM glucose.
A Jurkat cell line, in which Fas is always expressed, was treated with an FITC-labeled Fas antibody and treated with Alexa647-labeled FBP-8, FBP-A, FBP-7 or control peptide (YCNSTVCY; CtrFBP).

3T3L1 cell line = test: Apoptosis level in 3T3L1 cell line treated with FasL and peptide (annexin V flow cytometry); assay type: cell-based, murine; conditions: differentiated 3T3L1 treated with Fas ligand and peptide
Description: The 3T3L1 cell line was cultured in a DMEM culture medium containing 10% FBS, 1% penicillin, 1% streptomycin, and 25 mM glucose. The 3T3L1 cell line was aliquoted into the above DMEM culture solution at a concentration of 2×10^5 cells/ml to induce adipocyte maturation for 3 days, and then replaced with a culture solution containing insulin to induce adipocyte maturation again for 3 days. Thereafter, the 3T3L1 cell line was further cultured in the above DMEM culture solution for 2 days to achieve complete maturation of adipocytes.
The 3T3L1 cell line was treated with a Fas ligand (FasL) at a concentration of 500 ng/ml to induce apoptosis, and FBP signal blocking peptides (FBP-8. FBP-A and FBP-7) and CtrFBP bound to Alexa647 were treated, respectively. After 4 hours of peptide treatment, cells were washed with DPBS and treated with FITC-bound annexin V (BD Pharmingen) to analyze the apoptosis inhibitory effect by a flow cytometer.

obesity model mice = test: TUNEL staining of dead cells, obesity model mice, intravenous FBP-8; assay type: in vivo, C57BL/6 mice; conditions: intravenous twice a week for 5 weeks
Description: All animal experiments performed for the present invention were approved by the Institutional Animal Care and Use Committee of Hanyang University. […] Thereafter, depending on the experimental group, 60 μg/one time of FBP8 were administered by intravenous injection twice a week for a total of 5 weeks (FIG. 13), or FBP7 was administered by subcutaneous injection twice a day.
Furthermore, a terminal deoxynucleotidyl transferase dUTP nick end labeling (TUNEL) analysis for each tissue was performed with an in situ cell death detection kit (Millipore, USA). Thereafter, the fluorescence signals were analyzed under a TCS-SP5 confocal microscope by staining the nuclei with Hoechst 33342, and the fluorescence signals of each cell were analyzed with the Image J program.
Obesity model mice were produced by feeding normal mice a high fat diet for 8 weeks, and FBP-8 was administered by intravenous injection twice a week for a total of 5 weeks (FIG. 13). After five weeks, the obesity model mice were sacrificed to isolate white adipose tissues and liver tissues and analyze the proportion of dead cells by TUNEL staining.

[2] = target: T2, Fas on Jurkat cell line (human blood cancer cell line in which Fas is always expressed) (human, UniProt P25445 26-335); test: cell-based or functional assay
T2 sequence (looked up): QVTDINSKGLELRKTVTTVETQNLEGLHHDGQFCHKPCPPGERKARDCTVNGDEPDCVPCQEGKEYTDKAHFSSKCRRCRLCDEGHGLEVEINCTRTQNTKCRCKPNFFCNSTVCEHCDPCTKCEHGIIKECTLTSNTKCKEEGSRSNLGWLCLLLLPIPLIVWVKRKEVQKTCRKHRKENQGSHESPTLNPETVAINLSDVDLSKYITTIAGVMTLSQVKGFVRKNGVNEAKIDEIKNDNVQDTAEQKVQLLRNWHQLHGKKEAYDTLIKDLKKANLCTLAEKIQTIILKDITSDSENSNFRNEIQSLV

Molecule: CCCCCCCCCCCCCCCC(=O)N[C@@H](CCC(=O)NCCCC[C@H](NC(=O)[C@H](C)NC(=O)[C@H](C)NC(=O)[C@H](CCC(N)=O)NC(=O)CNC(=O)[C@H](CCC(=O)O)NC(=O)[C@H](CC(C)C)NC(=O)[C@H](Cc1ccc(O)cc1)NC(=O)[C@H](CO)NC(=O)[C@H](CO)NC(=O)[C@@H](NC(=O)[C@H](CC(=O)O)NC(=O)[C@H](CO)NC(=O)[C@@H](NC(=O)[C@H](Cc1ccccc1)NC(=O)[C@@H](NC(=O)CNC(=O)[C@H](CCC(=O)O)NC(=O)[C@H](C)NC(=O)[C@@H](N)Cc1cnc[nH]1)[C@@H](C)O)[C@@H](C)O)C(C)C)C(=O)N[C@@H](CCC(=O)O)C(=O)N[C@@H](Cc1ccccc1)C(=O)N[C@H](C(=O)N[C@@H](C)C(=O)N[C@@H](Cc1c[nH]c2ccccc12)C(=O)N[C@@H](CC(C)C)C(=O)N[C@H](C(=O)N[C@@H](CCCNC(=N)N)C(=O)NCC(=O)N[C@@H](CCCNC(=N)N)C(=O)NCC(=O)O)C(C)C)[C@@H](C)CC)C(=O)O [liraglutide]
side effects (obese person): nausea, vomiting, diarrhea, and constipation

Molecule: YCNSTVCY (control peptide) [CtrFBP, control peptide used as negative control, reference compound]
apoptosis level (3T3L1 cell line): 23±5.12%
binding to Jurkat cells (Alexa647 signal) (Fas): hardly bound to Jurkat cells
proportion of dead cells in liver tissue (TUNEL) (obesity model mice): 17+7.98%
proportion of dead cells in white adipose tissue (TUNEL) (obesity model mice): 51±2.98%

B1: Fas Blocking Peptide (FBP or FBP-8) (peptide)
peptide: YCDEHFCY
modifications: cysteine pairing not given here; also: Alexa647 or Alexa 488 label, attachment site not given here
apoptosis level of Jurkat cells treated with Fas ligand (FasL) and peptide [2]: 17%

B3: Control Peptide (CTRP) (peptide)
peptide: YCNSTVCY
modifications: cysteine pairing not given here; also: Alexa647 label, attachment site not given here
apoptosis level of Jurkat cells treated with Fas ligand (FasL) and peptide [2]: 31%

Other lines, results leading:

serum stability [1]: the best
Molecule: N[C@@H](Cc1ccc(O)cc1)C(=O)N[C@@H](CS)C(=O)N[C@@H](CC(=O)O)C(=O)N[C@@H](CCC(=O)O)C(=O)N[C@@H](Cc1c[nH]cn1)C(=O)N[C@@H](Cc1ccccc1)C(=O)N[C@@H](Cc1ccc(O)cc1)C(=O)O [FBP-7, YCDEHFY] (H-YCDEHFY-OH; N-terminus and C-terminus assumed)

binding to Jurkat cells (Alexa647 signal) (Fas): bound to Jurkat cells at similar levels
Molecule: YCDEHFAY (Fas binding peptide-A (FBP-A))

apoptosis level of Jurkat cells treated with Fas ligand (FasL) and peptide [2]: 15%
B2: Fas Blocking Peptide A (FBPA) (peptide)
peptide: YCDEHFAY
modifications: also: Alexa647 label, attachment site not given here

apoptosis level of Jurkat cells treated with Fas ligand (FasL) and peptide [2]: 14%
B4: Fas Blocking Peptide 7 (FBP7) (peptide)
peptide: YCDEHFY
modifications: also: Alexa647 label, attachment site not given here

From US20220088115A1, “PHARMACEUTICAL COMPOSITION, COMPRISING INHIBITORY PEPTIDE AGAINST FAS SIGNALING, FOR PREVENTION OR TREATMENT OF OBESITY, FATTY LIVER, OR STEATOHEPATITIS” (SIGNET BIOTECH INC., priority 2018, published 2022)
